The results in this text go back to PMC5548808, “Structural and functional insights into the lipopolysaccharide ABC transporter LptB2FG” (Nature Communications, 2017).

T1: LptF F26D/L62D of E. coli (in purified mutant LptB2CFG) (E. coli, UniProt P0AF98 1-366, F26D | L62D)
T1 construct: LptF, E. coli, double mutant F26D/L62D
T1 sequence (looked up): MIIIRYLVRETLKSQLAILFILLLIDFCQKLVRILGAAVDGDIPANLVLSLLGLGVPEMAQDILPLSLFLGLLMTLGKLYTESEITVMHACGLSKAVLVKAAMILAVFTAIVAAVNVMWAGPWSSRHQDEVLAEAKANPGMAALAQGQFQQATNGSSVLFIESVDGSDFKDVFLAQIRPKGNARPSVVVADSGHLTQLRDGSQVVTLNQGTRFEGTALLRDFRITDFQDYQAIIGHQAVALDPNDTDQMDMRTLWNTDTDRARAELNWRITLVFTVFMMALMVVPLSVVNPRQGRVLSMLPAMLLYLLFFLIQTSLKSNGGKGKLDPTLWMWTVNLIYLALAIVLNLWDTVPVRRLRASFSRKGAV

T2: LptG of E. coli (in purified wild-type LptB2CFG) (E. coli, UniProt P0ADC6 1-360)
T2 construct: LptG, E. coli, transmembrane subunit of the LptB2CFG complex
T2 sequence (looked up): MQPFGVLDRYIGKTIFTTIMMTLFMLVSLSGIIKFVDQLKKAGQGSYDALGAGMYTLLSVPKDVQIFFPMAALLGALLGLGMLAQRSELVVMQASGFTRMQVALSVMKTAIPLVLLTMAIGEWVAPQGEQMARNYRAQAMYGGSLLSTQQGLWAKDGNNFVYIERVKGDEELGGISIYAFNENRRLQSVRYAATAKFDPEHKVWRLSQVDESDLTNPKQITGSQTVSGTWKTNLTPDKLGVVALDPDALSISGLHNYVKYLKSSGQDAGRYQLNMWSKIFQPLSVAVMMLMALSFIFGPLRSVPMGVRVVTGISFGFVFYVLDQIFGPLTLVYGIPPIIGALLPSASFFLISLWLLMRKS

T3: LptF of E. coli (in purified wild-type LptB2CFG) (E. coli, UniProt P0AF98 1-366)
T3 construct: LptF, E. coli, transmembrane subunit of the LptB2CFG complex
T3 sequence (looked up): T1 sequence (looked up) with D26F, D62L

T4: LptG K34E/R136E of E. coli (in purified mutant LptB2CFG) (E. coli, UniProt P0ADC6 1-360, K34E | R136E)
T4 construct: LptG, E. coli, double mutant K34E/R136E
T4 sequence (looked up): T2 sequence (looked up) with K34E, R136E

B1: LptB of E. coli (in purified LptB2CFG) (natural protein, UniProt P0A9V1 1-241, looked up)
chain: MATLTAKNLAKAYKGRRVVEDVSLTVNSGEIVGLLGPNGAGKTTTFYMVVGIVPRDAGNIIIDDDDISLLPLHARARRGIGYLPQEASIFRRLSVYDNLMAVLQIRDDLSAEQREDRANELMEEFHIEHLRDSMGQSLSGGERRRVEIARALAANPKFILLDEPFAGVDPISVIDIKRIIEHLRDSGLGVLITDHNVRETLAVCERAYIVSQGHLIAHGTPTEILQDEHVKRVYLGEDFRL
notes: in the K. pneumoniae construct and in the E. coli pTRC99a-Kan LptBFG plasmid it is an 8xHis at the C terminus of LptB
B2: LptC of E. coli (in purified LptB2CFG) (natural protein, UniProt P0ADV9 1-191, looked up)
chain: MSKARRWVIIVLSLAVLVMIGINMAEKDDTAQVVVNNNDPTYKSEHTDTLVYNPEGALSYRLIAQHVEYYSDQAVSWFTQPVLTTFDKDKIPTWSVKADKAKLTNDRMLYLYGHVEVNALVPDSQLRRITTDNAQINLVTQDVTSEDLVTLYGTTFNSSGLKMRGNLRSKNAELIEKVRTSYEIQNKQTQP
notes: LptC, E. coli, inner membrane protein of the LptB2CFG complex; The construct of LptC is not described

Numbering of substitutions follows the chain as printed.

Experiment in all cases: SEC; co-expressed E. coli LptB2CFG complexes (wild type and mutants) purified as the K. pneumoniae complex; HiLoad 16/600 Superdex 200 pg, 20 mM Tris-Cl pH 7.8, 150 mM NaCl, 5% glycerol, 0.05% DDM
Common to all, as to conditions: both partners purified
In general terms: Size exclusion chromatography separates by hydrodynamic size, large species first.

In assay [1] the target is T1, LptF F26D/L62D of E. coli (in purified …).
Assay [2] has as its target T2, LptG of E. coli (in purified wild-type …).
Assay [3] deals with T3, LptF of E. coli (in purified wild-type …).
Assay [4] addresses T4, LptG K34E/R136E of E. coli (in purified …).
For assay [5], the target named is B1.

As to B1, the binding result in assay [1], in assay [2], in assay [3] and in assay [4] was “binds” throughout.
As to B2, in assay [5], the binding result is reported as “binds”.
